This is an account of results in US20020177126A1 (published 2002).

Experiment [1] concerns the target F protein (RSV F glycoprotein immobilised on the BIAcore sensor chip) (respiratory syncytial virus (RSV), UniProt P03420 26-524). Nature of the experiment: BIAcore, immobilised F protein. On the technique in general: SPR reads the build-up and loss of mass on a sensor chip optically.
For experiment [2], the target named is Bac-F (UniProt P03420 26-524). Nature of the experiment: BIAcore, Mab vs Bac-F, 1:1.
In experiment [3] the target is F protein of wild type RSV A/Long (respiratory syncytial virus, strain …, UniProt P12568 26-574). Nature of the experiment: cell-based or functional assay.

Several values for one entry are separate records, joined by “and”; a condition that tells them apart may be missing. Equal values may be shown once.

Sequence of Bac-F (P03420 26-524): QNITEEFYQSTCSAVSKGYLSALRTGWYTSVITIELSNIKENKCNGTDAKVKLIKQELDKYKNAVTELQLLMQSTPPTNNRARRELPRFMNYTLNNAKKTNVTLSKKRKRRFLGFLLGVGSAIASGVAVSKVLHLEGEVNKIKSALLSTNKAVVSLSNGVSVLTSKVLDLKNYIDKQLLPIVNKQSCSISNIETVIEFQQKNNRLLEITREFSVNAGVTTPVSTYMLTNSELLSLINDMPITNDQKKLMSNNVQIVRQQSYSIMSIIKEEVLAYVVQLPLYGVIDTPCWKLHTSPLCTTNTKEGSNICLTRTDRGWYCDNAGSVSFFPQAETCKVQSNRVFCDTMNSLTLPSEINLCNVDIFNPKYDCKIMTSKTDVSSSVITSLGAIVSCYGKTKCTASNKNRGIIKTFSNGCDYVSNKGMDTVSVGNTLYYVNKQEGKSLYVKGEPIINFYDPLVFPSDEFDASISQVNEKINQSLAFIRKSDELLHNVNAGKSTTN
Sequence of F protein (RSV F glycoprotein immobilised on the BIAcore sensor chip) (P03420 26-524): as above
Sequence of F protein of wild type RSV A/Long (P12568 26-574): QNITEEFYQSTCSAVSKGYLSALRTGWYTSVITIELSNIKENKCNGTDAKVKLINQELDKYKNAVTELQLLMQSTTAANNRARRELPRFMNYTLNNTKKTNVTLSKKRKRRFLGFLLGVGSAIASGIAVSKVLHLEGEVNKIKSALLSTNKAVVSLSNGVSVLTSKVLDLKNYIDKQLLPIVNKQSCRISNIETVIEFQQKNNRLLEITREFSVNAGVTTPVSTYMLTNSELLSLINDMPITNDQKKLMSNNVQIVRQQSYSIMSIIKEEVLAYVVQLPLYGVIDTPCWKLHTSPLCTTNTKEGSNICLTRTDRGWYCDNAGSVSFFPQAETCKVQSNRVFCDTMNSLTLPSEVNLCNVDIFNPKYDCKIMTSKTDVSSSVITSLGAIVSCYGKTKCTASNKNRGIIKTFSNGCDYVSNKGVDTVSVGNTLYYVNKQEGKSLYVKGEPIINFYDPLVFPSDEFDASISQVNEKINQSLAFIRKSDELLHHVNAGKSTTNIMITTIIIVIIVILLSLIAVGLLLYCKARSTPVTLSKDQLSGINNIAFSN

B1: 1X-493L1FR (Fab) (Fab, V domains shown)
VH: QVTLRESGPALVKPTQTLTLTCTFSGFSLSTSGMSVGWIRQPPGKALEWLADIWWDDKKDYNPSLKSRLTISKDTSKNQVVLKVTNMDPADTATYYCARSMITNWYFDVWGAGTTVTVSS
VL: DIQMTQSPSTLSASVGDRVTITCSASSSVGYMHWYQQKPGKAPKLLIYDTSKLASGVPSRFSGSGSGTEFTLTISSLQPDDFATYYCFQGSGYPFTFGGGTKLEIK
In experiment [1], B1 returned a koff of 0.00065 s⁻¹ and a kon of 185000 M⁻¹ s⁻¹.

B2: A1e9 (monoclonal antibody) (antibody, V domains shown)
VH: QVTLRESGPALVKPTQTLTLTCTFSGFSLSTAGMSVGWIRQPPGKALEWLADIWWDGKKHYNPSLKDRLTISKDTSKNQVVLKVTNMDPADTATYYCARDMIFNWYFDVWGQGTTVTVSS
VL: DIQMTQSPSTLSASVGDRVTITCSLSSRVGYMHWYQQKPGKAPKLLIYDTFKLSSGVPSRFSGSGSGTEFTLTISSLQPDDFATYYCFQGSGYPFTFGGGTKVEIK
B2: in experiment [2], binding was characterised by a dissociation constant (Kd) of 0.33 nM, the koff came to 0.000143 s⁻¹, the kon is 433000 M⁻¹ s⁻¹ and the “number in parentheses after KD (fold vs SYNAGIS)” value (from here on “number … (fold vs SYNAGIS)”) turned out to be 12 fold.

B3: A13c4 (monoclonal antibody) (antibody, V domains shown)
VH: QVTLRESGPALVKPTQTLTLTCTFSGFSLSTAGMSVGWIRQPPGKALEWLADIWWDGKKSYNPSLKDRLTISKDTSKNQVVLKVTNMDPADTATYYCARDMIFNFYFDVWGQGTTVTVSS
VL: DIQMTQSPSTLSASVGDRVTITCSLSSRVGYMHWYQQKPGKAPKLLIYDTMYQSSGVPSRFSGSGSGTEFTLTISSLQPDDFATYYCFQGSGYPFTFGGGTKVEIK
Regarding B3, in experiment [2], the affinity, expressed as Kd, was 0.13 nM; the koff turned out to be 3.96e-05 s⁻¹; the kon came out at 300000 M⁻¹ s⁻¹; the “number … (fold vs SYNAGIS)” value stood at 30 fold. Also, in experiment [3], the “Fold Difference (Control IC50)” value is 14 fold; the “Fold Difference (Curve IC50)” value turned out to be 12 fold; the “Mean IC50 (Control), RSV microneutralization” value (shortened to “Mean IC50 (Control)”) was 0.0375 µg/mL; the “Mean IC50 (Curve), RSV microneutralization” value (shortened to “Mean IC50 (Curve)”) amounted to 0.0376 µg/mL.

B4: AFFF (monoclonal antibody) (antibody, V domains shown)
VH: QVTLRESGPALVKPTQTLTLTCTFSGFSLSTAGMSVGWIRQPPGKALEWLADIWWDDKKDYNPSLKSRLTISKDTSKNQVVLKVTNMDPADTATYYCARSMITNFYFDVWGAGTTVTVSS
VL: DIQMTQSPSTLSASVGDRVTITCSASSSVGYMHWYQQKPGKAPKLLIYDTFKLASGVPSRFSGSGSGTEFTLTISSLQPDDFATYYCFQFSGYPFTFGGGTKLEIK
In the case of B4, in experiment [1], the koff is 0.000274 s⁻¹ and 0.000266 s⁻¹ and 0.000206 s⁻¹; the kon is 108000 M⁻¹ s⁻¹ and 96000 M⁻¹ s⁻¹ and 124000 M⁻¹ s⁻¹.

B5: A12a6 (monoclonal antibody) (antibody, V domains shown)
VH: QVTLRESGPALVKPTQTLTLTCTFSGFSLSTAGMSVGWIRQPPGKALEWLADIWWDGKKDYNPSLKDRLTISKDTSKNQVVLKVTNMDPADTATYYCARDMIFNFYFDVWGQGTTVTVSS
VL: DIQMTQSPSTLSASVGDRVTITCSASSRVGYMHWYQQKPGKAPKLLIYDTFKLSSGVPSRFSGSGSGTEFTLTISSLQPDDFATYYCFQGSGYPFTFGGGTKVEIK
As for B5, in experiment [2], the affinity, expressed as Kd, was 0.04 nM; the koff was determined as 1.65e-05 s⁻¹; the association rate constant (kon) amounted to 460000 M⁻¹ s⁻¹; the “number … (fold vs SYNAGIS)” value amounted to 98 fold. Also, in experiment [3], the “Fold Difference (Control IC50)” value was 15 fold; the “Fold Difference (Curve IC50)” value came to 13 fold; the “Mean IC50 (Control)” value worked out at 0.0354 µg/mL; the “Mean IC50 (Curve)” value worked out at 0.0357 µg/mL.

B6: P12f2 (monoclonal antibody) (antibody, V domains shown)
VH: QVTLRESGPALVKPTQTLTLTCTFSGFSLSTPGMSVGWIRQPPGKALEWLADIWWDDKKHYNPSLKDRLTISKDTSKNQVVLKVTNMDPADTATYYCARDMIFNFYFDVWGAGTTVTVSS
VL: DIQMTQSPSTLSASVGDRVTITCSLSSRVGYMHWYQQKPGKAPKLLIYDTFYLSSGVPSRFSGSGSGTEFTLTISSLQPDDFATYYCFQGSGYPFTFGGGTKVEIK
notes: also called Pf12; P1212
Regarding B6, in experiment [2], binding was characterised by a dissociation constant (Kd) of 0.31 nM, the koff came to 0.000128 s⁻¹, the kon was found to be 407000 M⁻¹ s⁻¹ and the “number … (fold vs SYNAGIS)” value amounted to 13 fold. Also, in experiment [3], the “Fold Difference (Control IC50)” value is 24 fold; the “Fold Difference (Curve IC50)” value was determined as 20 fold; the “Mean IC50 (Control)” value was 0.0223 µg/mL; the “Mean IC50 (Curve)” value turned out to be 0.0231 µg/mL.

B7: A8c7 (monoclonal antibody) (antibody, V domains shown)
VH: QVTLRESGPALVKPTQTLTLTCTFSGFSLSTAGMSVGWIRQPPGKALEWLADIWWDDKKSYNPSLKDRLTISKDTSKNQVVLKVTNMDPADTATYYCARDMIFNWYFDVWGQGTTVTVSS
VL: DIQMTQSPSTLSASVGDRVTITCSPSSRVGYMHWYQQKPGKAPKLLIYDTRYQSSGVPSRFSGSGSGTEFTLTISSLQPDDFATYYCFQGSGYPFTFGGGTKLEIK
Turning to B7, in experiment [2], the Kd was determined as 0.21 nM, the koff stood at 8.75e-05 s⁻¹, the kon worked out at 417000 M⁻¹ s⁻¹ and the “number … (fold vs SYNAGIS)” value is 19 fold.

B8: P12f4 (monoclonal antibody) (antibody, V domains shown)
VH: QVTLRESGPALVKPTQTLTLTCTFSGFSLSTPGMSVGWIRQPPGKALEWLADIWWDGKKHYNPSLKDRLTISKDTSKNQVVLKVTNMDPADTATYYCARDMIFNFYFDVWGQGTTVTVSS
VL: DIQMTQSPSTLSASVGDRVTITCSLSSRVGYMHWYQQKPGKAPKLLIYDTRGLPSGVPSRFSGSGSGTEFTLTISSLQPDDFATYYCFQGSGYPFTFGGGTKVEIK
Take B8: in experiment [2], the affinity, expressed as Kd, was 0.11 nM; the koff is 5.55e-05 s⁻¹; the kon is 495000 M⁻¹ s⁻¹; the “number … (fold vs SYNAGIS)” value turned out to be 35 fold. Besides, in experiment [3], the “Fold Difference (Control IC50)” value stood at 23 fold; the “Fold Difference (Curve IC50)” value is 19 fold; the “Mean IC50 (Control)” value stood at 0.0235 µg/mL; the “Mean IC50 (Curve)” value is 0.0242 µg/mL.

B9: 6H8 (Fab) (Fab, V domains shown)
VH: QVTLRESGPALVKPTQTLTLTCTFSGFSLSTAGMSVGWIRQPPGKALEWLADIWWDDKKDYNPSLKSRLTISKDTSKNQVVLKVTNMDPADTATYYCARDMITNFYFDVWGAGTTVTVSS
VL: DIQMTQSPSTLSASVGDRVTITCSASSSVGYMHWYQQKPGKAPKLLIYDTFKLTSGVPSRFSGSGSGTEFTLTISSLQPDDFATYYCFQGSGYPFTFGGGTKLEIK
B9: in experiment [1], the koff was 0.000178 s⁻¹ and 0.000473 s⁻¹; the on-rate constant (kon) was 314000 M⁻¹ s⁻¹ and 444000 M⁻¹ s⁻¹.

B10: DG (Fab) (Fab, V domains shown)
VH: QVTLRESGPALVKPTQTLTLTCTFSGFSLSTAGMSVGWIRQPPGKALEWLADIWWDDKKDYNPSLKSRLTISKDTSKNQVVLKVTNMDPADTATYYCARDMITNFYFDVWGAGTTVTVSS
VL: DIQMTQSPSTLSASVGDRVTITCSASSSVGYMHWYQQKPGKAPKLLIYDTFKLASGVPSRFSGSGSGTEFTLTISSLQPDDFATYYCFQGSGYPFTFGGGTKLEIK
As to B10, the koff in experiment [1] is 0.000167 s⁻¹ and 0.000444 s⁻¹.

B11: P11d4 (monoclonal antibody) (antibody, V domains shown)
VH: QVTLRESGPALVKPTQTLTLTCTFSGFSLSTPGMSVGWIRQPPGKALEWLADIWWDGKKHYNPSLKDRLTISKDTSKNQVVLKVTNMDPADTATYYCARDMIFNWYFDVWGQGTTVTVSS
VL: DIQMTQSPSTLSASVGDRVTITCSPSSRVGYMHWYQQKPGKAPKLLIYDTMRLASGVPSRFSGSGSGTEFTLTISSLQPDDFATYYCFQGSGYPFTFGGGTKVEIK
Turning to B11, in experiment [2], the affinity, expressed as Kd, was 0.62 nM; the koff stood at 0.000289 s⁻¹; the on-rate constant (kon) is 466000 M⁻¹ s⁻¹; the “number … (fold vs SYNAGIS)” value is 6 fold. In experiment [3], the “Fold Difference (Control IC50)” value was 19 fold; the “Fold Difference (Curve IC50)” value came out at 21 fold; the “Mean IC50 (Control)” value is 0.0289 µg/mL; the “Mean IC50 (Curve)” value turned out to be 0.0217 µg/mL.

As usually defined, the koff is the first-order rate constant of dissociation. Higher therefore signals a short-lived complex. A word on the kon: it is the second-order rate constant of association. Lower therefore signals slower complex formation. For orientation: Kd means the free concentration of one partner at which half of the binding sites on the other are occupied at equilibrium, for simple one-to-one binding.
